Experimental findings from patent US20210395777 are described below.

The data set deals with AAV capsid expressed by the standard BEV1 infection and the v-cath deleted BEV2 infection in Sf9 cells.

B1: V-CATH protease (Viral Cathepsin), encoded by the baculovirus v-cath gene of the BEV (protein)
chain: PLEFDWRRLNKVTSVKNQGMCGACWAFATLASLESQFAIKHNQLINLSEQQMIDCDFVDAGCNGGLLHTAFEAIIKMGGVQLESDYPYEADNNNCRMNSNKFLVQVKDCYRYITVYEEKLKDLLRLVGPIPMAIDAADIVNYKQGIIKYCFNSGLNHAVLLVGYGVENNIPYWTFKNTWGTDWGEDGFFRVQQNINACGMRNELASTAVIY
Consider B1, for which the “degradation products of the AAV capsid on Western immunoblot (BEV1 against v-cath deleted BEV2)” value was “Deletion of v-cath eliminated the degradation products”.
